These results are taken from US20260176342A1 (CITRYLL B V, published 2026).

Substitutions are numbered along the chain they refer to. Square brackets hold non-standard residues; d marks the D form. Ends that are not written are not given here. Cit = NC(=O)NCCC[C@H](N)C(=O)O

Test [1] addresses T1, citrullinated histone 2A-derived peptide (SEQ ID NO: 18), C-terminal biotin (human).
T1 construct: Captured by its biotin on NeutrAvidin plates (ELISA) or streptavidin biosensors (Octet); also called histone-derived peptide; citrullinated H2A-derived peptide
T1 peptide: SG[Cit]GKQGGKARA-biotin
Briefly: CMC ELISA, biotinylated peptide on NeutrAvidin-coated plate, anti-human-HRP, OD 450 nm, interpolated on a calibration curve. The method, then:
hMQ22.101j/e samples from week 0, 2, 4, 6 and 8, and hMQ22.101f/g samples from week 0, 3 and 6 were subjected to an in house-validated CMC ELISA. 96-well ELISA plates were coated with NeutrAvidin™ ([…]) by overnight incubation at 4° C. Wells were washed 5 times with PBS-Tween® (polysorbate) 20 (PBS-T) and blocked by a 2 hour incubation with PBS-T+1% Bovine serum albumin (BSA) at room temperature (RT). After 5 more washes with PBS-T, wells were incubated for 1 hour at RT with a histone-derived peptide (SEQ ID NO 18: SGXGKQGGKARA), containing a citrulline (X) at position 3 and a C-terminal biotin (40 ng/well) in PBS-T+0.2% BSA. After another 5 washes with PBS-T, a calibration curve made from a reference lot of hMQ22.101j/e or hMQ22.101f/g by adding to the wells starting at […] and further diluted at a 1:1 ratio until reaching a concentration of 0.66 ng/ml in PBS-T+0.2% BSA. […]
Finally, accelerated stability samples that had been incubated for 0, 2, 3, 4, 6 and 8 weeks at 37° C. were added to the same plate at a concentration of 40 ng/ml in PBS-T+0.2% BSA and incubated for 2 hours at RT. […] Wells were incubated 10 min with TMB substrate before stopping the reaction with 2 M H₂SO₄ after which the optical density was measured at wavelength of 450 nm. […]

The target in test [2] is T2, citrullinated histone 4-derived peptide (SEQ ID NO: 20), C-terminal biotin (human, citrulline at position 3; biotin at the C-terminus).
T2 construct: Immobilized on streptavidin biosensors (Octet RED96); also called H4-derived peptide; N-terminal histone 4 peptide
T2 peptide: SGXGKGGKGLGK
Briefly: Octet RED96 off-rate screen, biotinylated peptide on streptavidin biosensors, antibody 72 nM, 30 C. The method, then: Off-rate screening of the isomerization-mutated antibodies was performed on an Octet® RED96 (biomolecule detection system) instrument (Pall ForteBio). All measurements were performed at 30° C. Streptavidin (SA) biosensors were first washed for 50 sec with PBS. 1 μg/ml N-terminal histone 2A (SEQ ID NO: 18) and histone 4 (SEQ ID NO: 20) peptides, containing both a citrulline at position 3 and a biotin at the C-terminus, were immobilized on SA biosensors for 200 sec, washed with PBS for 50 sec and excess reactive streptavidin molecules blocked with EZ-Link™ biocytin for 200 sec. After two additional 50 sec wash steps in PBS, antibodies at a concentration of 72 nM diluted in PBS were allowed to bind to the biosensors for 200 sec. Sensors were subsequently placed in PBS for 4000 sec in order to measure their dissociation rates.
Background signals generated with non-coated biosensors, which have been exposed to the various antibodies as well as signals from coated biosensors that have not been exposed to the various antibodies, have been subtracted before dissociation curves for each antibody were plotted. Both histone 2A and histone 4 dissociation rates constants (kdis×E-07 (1/s)) for each antibody were calculated applying a 1:1 interaction model (fitting local, full) using ForteBio data analysis software 8.1.
(In general: Biolayer interferometry detects binding as a change in optical thickness at a sensor tip.)

The target of test [3] is T1, citrullinated histone 2A-derived …. Briefly: CMC ELISA, biotinylated peptide on NeutrAvidin-coated plate, anti-human-HRP, OD 450 nm. Here is the method:
hMQ22.101j/e samples from week 0, 2, 4, 6 and 8, and hMQ22.101f/g samples from week 0, 3 and 6 were subjected to an in house-validated CMC ELISA. 96-well ELISA plates were coated with NeutrAvidin™ ([…]) by overnight incubation at 4° C. Wells were washed 5 times with PBS-Tween® (polysorbate) 20 (PBS-T) and blocked by a 2 hour incubation with PBS-T+1% Bovine serum albumin (BSA) at room temperature (RT). After 5 more washes with PBS-T, wells were incubated for 1 hour at RT with a histone-derived peptide (SEQ ID NO 18: SGXGKQGGKARA), containing a citrulline (X) at position 3 and a C-terminal biotin (40 ng/well) in PBS-T+0.2% BSA. After another 5 washes with PBS-T, a calibration curve made from a reference lot of hMQ22.101j/e or hMQ22.101f/g by adding to the wells starting at […] and further diluted at a 1:1 ratio until reaching a concentration of 0.66 ng/ml in PBS-T+0.2% BSA. Spiked quality control (QC) samples made from the same reference lot hMQ22.101j/e or hMQ22.101f/g at higher (HQC, 250 ng/ml), middle (MQC, 50 ng/ml), lower (LQC 3.75 ng/ml) and lower limit quality control (LLQC, 1.25 ng/ml) were diluted in PBS-T+0.2% BSA and added to the plate as well. These QC samples were used in order to validate the ELISA results.
Finally, accelerated stability samples that had been incubated for 0, 2, 3, 4, 6 and 8 weeks at 37° C. were added to the same plate at a concentration of 40 ng/ml in PBS-T+0.2% BSA and incubated for 2 hours at RT. Wells were washed 5 times with PBS-T and incubated with rabbit anti-human-HRP antibody (1:12.000 in PBS-T+0.2% BSA) for 1 hour at RT followed by 3 washes with PBS-T and 3 washes with PBS. Wells were incubated 10 min with TMB substrate before stopping the reaction with 2 M H₂SO₄ after which the optical density was measured at wavelength of 450 nm. A sigmoidal calibration curve was plotted and fitted using the values from the serial diluted reference antibody. Concentrations of the QC samples and accelerated stability samples were recalculated using the equation from the sigmoidal fitted curve.
On the technique in general: An ELISA detects its analyte on a solid surface through an enzyme-linked reagent.

B1: hMQ22.101f/g (antibody, V domains shown)
VH: RIQLVQSGAEVKKPGASVKVSCKASGYTFTNYGMHWVRQAPGQGLEWMGWINTYSGEATYAQKFQGRVTMTRDTSISTAYMELSRLRSDDTAVYYCLRGYTYQSFDEGGDYWGQGTLVTVSS
VL: DVVMTQSPLSLPVTLGQPASISCRSSQSLLDSDGKTYLNWFQQRPGQSPRRLIYLVSKLDSGVPDRFSGSGSGTDFTLKISRVEAEDVGVYYCWQGTHFPYTFGQGTKLEIK
notes: Full-size humanized antibody; also called humanized therapeutic antibody with heavy chain hVH22.101f and light chain hVL22.101g; tACPA
Regarding B1, the binding result in test [1] and in test [2] was “binds” throughout.

B2: hMQ22.101j/e (antibody, V domains shown)
VH: B1 VH with R1Q, I2V
VL: B1 VL with L30V
notes: Full-size antibody with full-length human heavy and light chains; also called humanized therapeutic antibody with heavy chain hVH22.101j and light chain hVL22.101e; tACPA
Consider B2, for which the binding result in test [1] and in test [2] was “binds” throughout.

B3: hMQ22.101j/j (antibody, V domains shown)
VH: B1 VH with R1Q, I2V
VL: B1 VL with L30V, D31S
notes: also called VL CDR1 aspartate-mutated antibody (DS site to SS)
Take B3: in test [3], the binding result was “binds”.
